Reference: PMC10171801

Molecular target: MAGI2 PDZ0-GK (mouse) (UniProt Q9WVQ1)
Test: ITC

UniProt Q9WVQ1, sequence (Q9WVQ1 9-238): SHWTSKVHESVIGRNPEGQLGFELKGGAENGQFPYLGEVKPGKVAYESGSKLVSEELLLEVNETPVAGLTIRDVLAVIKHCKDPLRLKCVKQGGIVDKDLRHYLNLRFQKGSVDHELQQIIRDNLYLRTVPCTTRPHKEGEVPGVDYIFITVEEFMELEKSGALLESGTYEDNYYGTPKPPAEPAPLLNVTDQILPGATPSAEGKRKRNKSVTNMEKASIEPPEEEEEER

Kd [nM]	Substance
70	pSAPAP1-GBR2(T+5F) (peptide)
70	pSAPAP1-GBR2(E-1P) (peptide)
